Data: CN111995676A (UNIV WEIFANG MEDICAL, dated 2020)
Substitutions are numbered along the chain they refer to.

Molecular target: T1, 牛血清白蛋白BSA (bovine, UniProt P02769 25-607)
T1 construct: also called BSA蛋白; 牛血清蛋白
Test: phage ELISA, coated protein

T1 sequence (P02769 25-607 limits assumed): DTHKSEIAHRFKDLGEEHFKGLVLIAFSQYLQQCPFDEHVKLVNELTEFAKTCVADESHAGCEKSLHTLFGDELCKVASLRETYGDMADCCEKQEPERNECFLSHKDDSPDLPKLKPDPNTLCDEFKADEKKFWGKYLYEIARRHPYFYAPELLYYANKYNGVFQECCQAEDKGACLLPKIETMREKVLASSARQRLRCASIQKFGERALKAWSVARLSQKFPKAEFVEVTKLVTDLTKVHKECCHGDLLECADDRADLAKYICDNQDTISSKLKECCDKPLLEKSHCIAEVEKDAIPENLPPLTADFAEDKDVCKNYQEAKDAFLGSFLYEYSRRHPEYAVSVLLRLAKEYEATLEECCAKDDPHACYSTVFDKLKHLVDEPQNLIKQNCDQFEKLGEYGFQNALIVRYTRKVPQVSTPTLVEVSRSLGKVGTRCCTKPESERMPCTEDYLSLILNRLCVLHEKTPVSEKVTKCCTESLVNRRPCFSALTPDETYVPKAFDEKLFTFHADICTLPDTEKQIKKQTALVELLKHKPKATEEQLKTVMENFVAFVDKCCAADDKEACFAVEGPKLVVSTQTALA

B1: 噬菌体展示的A4抗体 (单克隆抗体A4) (antibody, V domains shown)
VH: EVQLLESGGGLVQPGGSLRLSCAASGFTFSSYAMSWVRQAPGKGLEWVSYITNNGANTSYADSVKGRFTISRDNSKNTLYLQMNSLRAEDTAVYYCAKSYATFDYWGQGTLVTVSS
VL: DIQMTQSPSSLSASVGDRVTITCRASQSISSYLNWYQQKPGKAPKLLIYNASGLQSGVPSRFSGSGSGTDFTLTISSLQPEDFATYYCQQAAYYPTTFGQGTKVEIKR
notes: also called 噬菌体展示A4抗体; A4噬菌体
binding result: no binding (tested: 1μg/mL coated)

B2: 噬菌体展示的A2抗体 (单克隆抗体A2) (antibody, V domains shown)
VH: B1 VH with Y50G, T52D, N53A, N54S, A56Y, N57Y, S99D, Y100A, A101Y
VL: B1 VL with N50S, G53Y, A92S, Y93A, Y94D, T96D
binding result: no binding (tested: 1μg/mL coated)

B3: 噬菌体展示的C3抗体 (单克隆抗体C3) (antibody, V domains shown)
VH: EVQLLESGGGLVQPGGSLRLSCAASGFTFSSYAMSWVRQAPGKGLEWVSSIASSGYYTDYADSVKGRFTISRDNSKNTLYLQMNSLRAEDTAVYYCAKDADSFDYWGQGTLVTVSS
VL: B1 VL with N50A, G53Y, A92Y, Y93S, Y94A, T96S
binding result: no binding (tested: 1μg/mL coated)
